From US20150299277A1, “AGENT FOR TREATING OR PREVENTING SYSTEMIC INFLAMMATORY RESPONSE SYNDROME” (THE UNIVERSITY OF TOKYO, priority 2012, published 2015)

Biological target: recombinant human histone H4 (human) (UniProt P62805)
Assay: cell-based or functional assay

Escherichia coli-expressed His-tagged N-terminal domain human PTX3 (18-178 amino acids), wild-type (from UniProt P26022 18-178)
aggregation stoichiometry (protein left after removal of the aggregate, SYPRO Ruby) (mol histone H4 per mol N-terminal domain): 2
